Here are results for 1 sequence from paper PMC5873253.

This data set addresses OsMADS57 (Oryza sativa) (UniProt Q6Z6W2). Description: SPR. The conditions noted are these: SPR (Biacore 3000, SA chip): 10 mM Hepes pH 7.9, 50 mM KCl, 1 mM EDTA, 0.5 mM DTT, 5 mM MgCl2, 10% glycerol, 0.005% P20, 25 or 4 C, protein 0.15-4.80 uM, EMSA: …. Background: In EMSA bound probe runs differently from free probe, usually more slowly.

Chain of OsMADS57 (Oryza sativa) (Q6Z6W2 whole entry): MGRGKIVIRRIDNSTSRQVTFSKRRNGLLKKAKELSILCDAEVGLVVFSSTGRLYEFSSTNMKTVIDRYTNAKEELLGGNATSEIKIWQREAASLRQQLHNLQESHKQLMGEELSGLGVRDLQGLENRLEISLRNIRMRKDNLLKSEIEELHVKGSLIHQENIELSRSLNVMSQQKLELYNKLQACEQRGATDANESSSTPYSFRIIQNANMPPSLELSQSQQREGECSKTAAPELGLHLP

One may read the Kd as a measure of binding affinity in units of concentration. Low values mean higher affinity, high ones lower affinity. For “TTAACTTTAAAAAGTTAGTTAACTTTAAAAAGTTAGTTAACTTTAAAAAGTTAG (double strand) [WRKY94S2]”, the Kd is 700 nM. This sequence yielded a Kd (25 C) of 1200 nM.
